In publication PMC7913688, “Human Rev1 relies on insert-2 to promote selective binding and accurate replication of stabilized G-quadruplex motifs”:
Substitutions are numbered along the chain they refer to.

What was measured:
Conditions in all cases: protein: recombinant, label: 5'-FAM
[1] = target: T1, hRev1 330-833 polymerase core (human, UniProt Q9UBZ9 330-833); test: fluorescence polarization; 100 mM KCl; Fluorescence polarization: 1 nM FAM-DNA, 100 mM KCl or LiCl; DNA annealed in 50 mM HEPES pH 7.5; full buffer as in cited ref 17, temperature not stated. Footprinting: 50 mM HEPES pH 7.5, 100 mM KCl, 10 uM protein, 30 uM ssDNA, room temperature
T1 sequence: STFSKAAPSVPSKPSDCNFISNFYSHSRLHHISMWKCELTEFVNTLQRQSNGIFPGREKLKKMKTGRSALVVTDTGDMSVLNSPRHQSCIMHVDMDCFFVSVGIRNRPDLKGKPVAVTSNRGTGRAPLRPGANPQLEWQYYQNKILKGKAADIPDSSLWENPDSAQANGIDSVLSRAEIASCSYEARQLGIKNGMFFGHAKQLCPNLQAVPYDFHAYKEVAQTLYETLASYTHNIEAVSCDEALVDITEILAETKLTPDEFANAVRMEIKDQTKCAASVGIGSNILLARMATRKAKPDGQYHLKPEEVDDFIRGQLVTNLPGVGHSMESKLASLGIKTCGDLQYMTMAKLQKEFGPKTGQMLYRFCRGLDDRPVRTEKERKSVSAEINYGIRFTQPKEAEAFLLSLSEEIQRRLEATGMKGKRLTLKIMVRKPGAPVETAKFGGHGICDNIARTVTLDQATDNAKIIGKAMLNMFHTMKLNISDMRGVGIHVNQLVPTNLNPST

hRev1 full-length = target: T2, hRev1 full-length (human, UniProt Q9UBZ9 1-1251); test: as above
T2 sequence: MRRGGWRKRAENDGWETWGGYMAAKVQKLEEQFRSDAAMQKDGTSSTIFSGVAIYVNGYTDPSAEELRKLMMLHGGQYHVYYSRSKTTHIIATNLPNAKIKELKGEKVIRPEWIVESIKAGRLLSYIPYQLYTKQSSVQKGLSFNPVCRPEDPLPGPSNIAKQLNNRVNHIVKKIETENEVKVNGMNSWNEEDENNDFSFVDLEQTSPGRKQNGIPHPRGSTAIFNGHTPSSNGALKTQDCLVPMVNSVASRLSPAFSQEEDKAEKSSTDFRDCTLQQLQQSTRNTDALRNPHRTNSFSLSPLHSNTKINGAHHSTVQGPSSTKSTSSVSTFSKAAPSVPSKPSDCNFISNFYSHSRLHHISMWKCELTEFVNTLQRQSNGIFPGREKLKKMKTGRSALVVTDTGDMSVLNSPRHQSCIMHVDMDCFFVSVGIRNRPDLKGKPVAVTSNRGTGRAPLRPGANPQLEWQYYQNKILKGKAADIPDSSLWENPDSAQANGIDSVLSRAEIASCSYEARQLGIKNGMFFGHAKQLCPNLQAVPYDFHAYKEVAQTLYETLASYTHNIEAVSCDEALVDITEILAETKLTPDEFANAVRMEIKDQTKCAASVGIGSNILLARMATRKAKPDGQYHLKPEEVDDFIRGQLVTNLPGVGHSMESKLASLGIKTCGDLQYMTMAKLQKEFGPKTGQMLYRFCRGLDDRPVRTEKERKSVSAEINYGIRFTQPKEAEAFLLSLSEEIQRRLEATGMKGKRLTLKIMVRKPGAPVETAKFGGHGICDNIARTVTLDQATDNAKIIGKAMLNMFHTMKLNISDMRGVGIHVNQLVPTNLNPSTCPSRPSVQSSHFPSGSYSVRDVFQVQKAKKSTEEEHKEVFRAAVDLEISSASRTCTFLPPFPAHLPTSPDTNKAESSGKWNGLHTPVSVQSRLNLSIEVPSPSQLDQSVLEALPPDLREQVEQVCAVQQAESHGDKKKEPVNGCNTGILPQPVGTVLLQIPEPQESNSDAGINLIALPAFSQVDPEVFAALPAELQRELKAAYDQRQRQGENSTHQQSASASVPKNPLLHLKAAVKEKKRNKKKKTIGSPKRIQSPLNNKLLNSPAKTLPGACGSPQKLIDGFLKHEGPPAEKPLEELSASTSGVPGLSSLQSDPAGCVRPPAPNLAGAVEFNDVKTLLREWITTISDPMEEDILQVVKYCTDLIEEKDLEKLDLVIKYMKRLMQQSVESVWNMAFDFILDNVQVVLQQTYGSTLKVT

hRev1 330-833 L358A = target: T3, hRev1 330-833 L358A (human, UniProt Q9UBZ9 330-833, L358A); test: fluorescence polarization; 100 mM KCl?; Fluorescence polarization: 1 nM FAM-DNA, 100 mM KCl or LiCl; DNA annealed in 50 mM HEPES pH 7.5; full buffer as in cited ref 17, temperature not stated. Footprinting: 50 mM HEPES pH 7.5, 100 mM KCl, 10 uM protein, 30 uM ssDNA, room temperature
T3 sequence: T1 sequence with L29A

[2] = parallel G4 (1:2:1 loops) in K+

## AGCGTGCGTAGCGTGCGTTATGAGATGAT (ssDNA) [Non-G4 Myc control ss]
[1]
  Kd: 910 ± 120 nM
hRev1 full-length
  Kd: 110 ± 20 nM
hRev1 330-833 L358A
  Kd: 660 ± 140 nM

## AGGGTGGGTAGGGTGGGTTATGAGATGAT (structured_DNA) [Myc 14/23 ss G4]
[1]; [2]
  Kd: 37 ± 7 nM
hRev1 full-length; [2]
  Kd: 5 ± 1 nM
hRev1 330-833 L358A; [2]
  Kd: 77 ± 8 nM
